Source: US20260049151A1 (SHENGHE CHINA BIOPHARMACEUTICAL, published 2026)
Read-outs that look alike come from different tables or passages of the source.

Assays:
[1] = biological target: T1, Human 4-1BB His (human, UniProt Q07011 24-186); assay: ELISA: Human 4-1BB His coated (0.2 ug/mL), antibody titrated, goat anti-human IgG Fc detection (Example 3)
T1 construct: Bought protein; lots 198-2146F1-W6 and 2407c-214FF1-YC; also called human 4-1BB protein; 4-1BB protein; not shown: His tag
Method: (§1) Human 4-1BB His (manufacturer: Acro, CAT: 41B-H5258, LOT: 198-2146F1-W6) was diluted to 0.2 μg/mL with a coating solution (1×PBS, pH7.4), and coated in 96-well ELISA plate at 100 μL/well overnight at 4° C. The coating solution was poured off. Each well was washed with 1×PBST at 300 μL, washed 4 times with a plate washer, and patted dry on a flat paper. It was blocked with 3% skim milk powder at 300 μL/well, and incubated at 37° C. for 1 h. The blocking solution was poured off, washed 4 times with a plate washer, and patted dry on a flat paper. Negative control and positive control were set up. […] The variable region of the antibody sequence of the positive control consists of SEQ ID NO: 15 and SEQ ID NO: 19, with the addition of the constant region of human IgG1 (SEQ ID NO: 46 and SEQ ID NO: 47). The positive control and antibody were diluted to 10 μg/mL with 3% skim milk powder as the starting concentration, and then diluted by 3-fold gradient (11 gradients in total), and a blank well was set up and only the diluent was added. It was incubated at 37° C. for 1 h at 100 μL/well. The liquid in the well was discarded, washed 4 times with a plate washer, and patted dry on a flat paper. Goat anti-human IgG Fc was diluted with 3% skim milk powder at 1:20000, and incubated at 37° C. for 1 h at 100 μL/well. It was washed 6 times with a plate washer, and patted dry on a flat paper. TMB color developing solution was added at 100 μL/well, and wrapped with aluminum foil. Color development was performed at 37° C. in the dark for 8 min. Termination solution 1M HCl was added to terminate the color development reaction at 100 μL/well. Readings were taken at 450 nm on an ELISA reader.

[2] = biological target: T1, Human 4-1BB His; assay: as above; remark: listed apart in the source
[3] = biological target: T2, Human-TNFR2-His (human, UniProt P20333 23-257); assay: ELISA: Human-TNFR2-His coated (0.1 ug/mL), antibody titrated, goat anti-human IgG Fc detection (Example 2)
T2 construct: Bought protein; also called human TNFR2 protein; TNFR2 protein; not shown: His tag
T2 sequence (looked up): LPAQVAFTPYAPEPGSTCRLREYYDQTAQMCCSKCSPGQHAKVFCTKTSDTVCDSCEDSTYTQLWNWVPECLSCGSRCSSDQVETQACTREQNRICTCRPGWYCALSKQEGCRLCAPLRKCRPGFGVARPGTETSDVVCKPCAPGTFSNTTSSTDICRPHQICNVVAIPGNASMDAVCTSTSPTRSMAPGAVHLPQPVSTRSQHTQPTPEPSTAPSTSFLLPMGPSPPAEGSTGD
Method: (§2) Human-TNFR2-His (manufacturer: SINO, CAT: 10417-H08H, LOT: LC15NO0412) was diluted to 0.1 μg/mL with a coating solution (1×PBS, pH7.4), and coated in 96-well ELISA plate at 100 µL/well overnight at 4° C. The coating solution was poured off. Each well was washed with 1×PBST at 300 μL, washed 4 times with a plate washer, and patted dry on a flat paper. It was blocked with 3% skim milk powder at 300 μL/well, and incubated at 37° C. for 1 h. The blocking solution was poured off, washed 4 times with a plate washer, and patted dry on a flat paper. Negative control and positive control were set up. […] The positive control and antibody were diluted to 10 μg/mL with 3% skim milk powder as the starting concentration, and then diluted by 3-fold gradient (11 gradients in total), and a blank well was set up and only the diluent was added. It was incubated at 37° C. for 1 h at 100 μL/well. The liquid in the well was discarded, washed 4 times with a plate washer, and patted dry on a flat paper. Goat anti-human IgG Fc was diluted with 3% skim milk powder at 1:10000, and incubated at 37° C. for 1 h at 100 μL/well. It was washed 6 times with a plate washer, and patted dry on a flat paper. TMB color developing solution was added at 100 μL/well, and wrapped with aluminum foil. Color development was performed at 37° C. in the dark for 8 min. Termination solution 1M HCl was added to terminate the color development reaction at 100 μL/well. Readings were taken at 450 nm on an ELISA reader.

[4] = biological target: T1, Human 4-1BB His; assay: ELISA: Human 4-1BB His coated (0.2 ug/mL), antibody titrated, goat anti-human IgG Fc detection (Example 3); remark: listed apart in the source
Method: as §1

[5] = biological target: T2, Human-TNFR2-His; assay: ELISA: Human-TNFR2-His coated (0.1 ug/mL), antibody titrated, goat anti-human IgG Fc detection (Example 2); remark: listed apart in the source
Method: as §2

T1 sequence (Q07011 24-186 limits assumed): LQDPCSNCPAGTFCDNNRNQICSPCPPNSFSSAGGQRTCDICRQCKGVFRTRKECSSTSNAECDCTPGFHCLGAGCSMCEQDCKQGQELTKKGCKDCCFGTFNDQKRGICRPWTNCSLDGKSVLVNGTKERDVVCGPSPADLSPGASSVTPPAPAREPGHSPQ

B1: Antibody M1 (bispecific antibody, human IgG1, kappa)
light: DIQMTQSPSSLSASLGDRVTISCSASQGISNYLNWYQQKPDGTVKLLIYYTSTLHSGVPSRFSGSGSGTDYTLTISSLQPEDIATYYCQQYSKLPWTFGGGTKLEIKRTVAAPSVFIFPPSDEQLKSGTASVVCLLNNFYPREAKVQWKVDNALQSGNSQESVTEQDSKDSTYSLSSTLTLSKADYEKHKVYACEVTHQGLSSPVTKSFNRGEC
heavy: not shown
notes: IgG1 subtype; full-length 4-1BB antibody with TNFR2 VHH at the N-terminus of the heavy chains
- EC50 (read off the curve) [1]: ~0.09 nM

B2: Antibody E1 (bispecific antibody, human IgG1, kappa)
light: DIVMTQSPATLSVSPGERATLSCKASQNVGSNVDWYQQKPGQSPRVLIYKASIRYTGIPARFSGSGSGTEFTLTISILQSEDFAVYFCMQSKSYPITFGQGTKLEIKRTVAAPSVFIFPPSDEQLKSGTASVVCLLNNFYPREAKVQWKVDNALQSGNSQESVTEQDSKDSTYSLSSTLTLSKADYEKHKVYACEVTHQGLSSPVTKSFNRGEC
heavy: not shown
notes: IgG1 subtype; full-length TNFR2 antibody with 4-1BB scFv at the C-terminus of the heavy chains
- EC50 (read off the curve) [2]: ~0.2 nM
- EC50 (read off the curve) [3]: ~0.09 nM
- EC50 (read off the curve) [4]: ~0.2 nM

B3: Antibody H (bispecific antibody, human IgG1, kappa)
light: QVQLQESGPGLVKPSETLSLTCTVSGSSLTSYGVHWVRQPPGKCLEGLGVIWPGGSTNYNSALMSRVTISKDNSKSQVSLKMSSLTAADTAVYYCARVTGTWYFDVWGQGTTVTVSSGGGGSGGGGSGGGGSDIQMTQSPSSLSASLGDRVTISCSASQGISNYLNWYQQKPDGTVKLLIYYTSTLHSGVPSRFSGSGSGTDYTLTISSLQPEDIATYYCQQYSKLPWTFGCGTKLEIKGGGGSGGGGSGGGGSDIVMTQSPATLSVSPGERATLSCKASQNVGSNVDWYQQKPGQSPRVLIYKASIRYTGIPARFSGSGSGTEFTLTISILQSEDFAVYFCMQSKSYPITFGQGTKLEIKRTVAAPSVFIFPPSDEQLKSGTASVVCLLNNFYPREAKVQWKVDNALQSGNSQESVTEQDSKDSTYSLSSTLTLSKADYEKHKVYACEVTHQGLSSPVTKSFNRGEC
heavy: not shown
notes: IgG1 subtype; full-length TNFR2 antibody with 4-1BB scFv at the N-terminus of the light chains
- EC50 (read off the curve) [5]: ~0.08 nM
